Results: PMC12871438, “Single-molecule localization microscopy reveals the molecular organization of endogenous membrane receptors” (Science Advances, 2026)

What was measured:
[1] = target: CD45 (human (endogenous in Jurkat)) (UniProt P08575); assay: dSTORM localization statistics (number of localizations per cluster); live Jurkat T cells of large passage number labelled on ice with HI30-AF647, then fixed with 2% FA and 0.25% GA; TIRF on the basal membrane; DBSCAN clusters compared with theoretical monomer and dimer distributions
[2] = target: the molecule itself; assay: dSTORM localization statistics (number of localizations per cluster); Jurkat T cells labelled with FN50-AF647, live on ice or after PFA or FA fixation, independent of the passage number; DBSCAN clusters compared with theoretical monomer and dimer distributions

Row | stoichiometry N [1] | Molecule | stoichiometry N [2]
1 | 2 | CD45 (from UniProt P08575 26-1306) (receptor) | 
2 |  | CD69 (receptor, human (endogenous in Jurkat), UniProt Q07108 1-199, looked up, CD69, endogenous in the plasma membrane of human Jurkat T cells; the introduction describes it as a phosphorylated disulfide-linked homodimer; Written as the protomer; the self-association row gives the dimer; Detected with the anti-CD69 antibody FN50-AF647; source: endogenous, on Jurkat T cells (Jurkat E6-1)) MSSENCFVAENSSLHPESGQENDATSPHFSTRHEGSFQVPVLCAVMNVVFITILIIALIALSVGQYNCPGQYTFSMPSDSHVSSCSEDWVGYQRKCYFISTVKRSWTSAQNACSEHGATLAVIDSEKDMNFLKRYAGREEHWVGLKKEPGHPWKWSNGKEFNNWFNVTGSDKCVFLKNTEVSSMECEKNLYWICNKPYK | 2
